Binding signal (fold enrichment) data for 1 substance are collected here from patent US20250320258.

In the data set the test system is NSP1 (SARS-CoV-2).

In turn, 18S rRNA returned a binding signal (fold enrichment) of more than 5.
